Reference: patent publication US20220125891A1 (OSAKA UNIVERSITY, published 2022)
Positions of bridges follow the written chain, without caps; N, C: chain ends. Non-standard residues stand in square brackets, D forms with d. No end group written: not given here. NMeA = CN[C@@H](C)C(=O)O; dNMeA = CN[C@H](C)C(=O)O

T1: full-length human Regnase-1 with a FLAG tag on the N-terminal side and a biotin ligase BirA recognition … (human, UniProt Q5D1E8 1-599, biotinylated where required ; Biotinylated at the BirA recognition sequence where required. That sequence is not in the letters.)
T1 construct: Expressed in Expi293 cells, purified on FLAG M2 agarose and by gel filtration; also called full-length Regnase-1; human full-length Regnase-1
T1 sequence: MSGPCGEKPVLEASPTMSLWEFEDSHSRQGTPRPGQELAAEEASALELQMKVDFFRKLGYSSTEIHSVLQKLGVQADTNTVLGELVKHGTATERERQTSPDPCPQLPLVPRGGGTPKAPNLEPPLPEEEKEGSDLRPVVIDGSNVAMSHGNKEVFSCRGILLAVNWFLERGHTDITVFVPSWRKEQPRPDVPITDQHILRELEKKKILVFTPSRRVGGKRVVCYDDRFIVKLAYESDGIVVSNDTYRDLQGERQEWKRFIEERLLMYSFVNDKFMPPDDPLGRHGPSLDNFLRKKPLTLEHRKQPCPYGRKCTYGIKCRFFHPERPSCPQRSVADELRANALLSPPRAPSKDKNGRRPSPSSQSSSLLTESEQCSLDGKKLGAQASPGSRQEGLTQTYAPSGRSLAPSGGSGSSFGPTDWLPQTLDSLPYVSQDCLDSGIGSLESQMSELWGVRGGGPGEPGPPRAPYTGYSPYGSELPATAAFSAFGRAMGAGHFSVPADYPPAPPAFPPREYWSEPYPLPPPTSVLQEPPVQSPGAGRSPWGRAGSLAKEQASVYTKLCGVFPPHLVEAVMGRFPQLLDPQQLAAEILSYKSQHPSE

T2: Reg1_301-599 (human Regnase-1 amino acids 301 to 599, FLAG tag on the N-terminal side, BirA recognition … (human))
T2 sequence (Q5D1E8 301-599, looked up): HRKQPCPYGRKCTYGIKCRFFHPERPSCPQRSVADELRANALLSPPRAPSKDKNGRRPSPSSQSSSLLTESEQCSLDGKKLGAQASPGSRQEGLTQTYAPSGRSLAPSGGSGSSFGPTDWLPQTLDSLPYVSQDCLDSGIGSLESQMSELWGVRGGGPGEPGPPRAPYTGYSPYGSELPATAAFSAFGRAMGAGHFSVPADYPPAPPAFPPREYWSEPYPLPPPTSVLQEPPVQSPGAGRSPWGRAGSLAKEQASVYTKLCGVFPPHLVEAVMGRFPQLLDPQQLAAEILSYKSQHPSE


Target: T1, full-length human Regnase-1 with a FLAG …
Assay: affinity selection-MS (SEC, LC/MS), 1 µM each

Row | Binder | AS-MS ratio(%)
1 | [NMeA]NYQSWYYRSIWD (lactam N-13) [PP10] | 3.7
2 | [dNMeA]TYGHSSWYKIWD (lactam N-13) [PP9] | 14.8
3 | [NMeA]DIWFDYWDWD (lactam N-11) [PP17] | 67.8
4 | [NMeA]DIWFDYWDYD (lactam N-11) [PP18] | 71.6
5 | [NMeA]KFAQFRWIYPD (lactam N-12) [PP11] | 5.1

The next lines start with the values.

Row | AS-MS ratio(%) | Binder
6 | 0.1 | [NMeA]RFRQWKWVYPD (lactam N-12) [PP13]
7 | 66.7 | [NMeA]NSWYINIWGHD (lactam N-12) [PP15]
8 | 6.2 | [dNMeA]SKYWNSWYNIWD (lactam N-13) [PP8]

Target: T3, ΔCTD_Reg1 (human Regnase-1 amino acids 1 to 546, FLAG tag on the N-terminal side, BirA recognition sequence … (human))
Assay: cell-based or functional assay

Row | Binder | IC50, phosphorylation by IKKβ [µM]
9 | [NMeA]NYQSWYYRSIWD (lactam N-13) [PP10] | 2.6
10 | [dNMeA]TYGHSSWYKIWD (lactam N-13) [PP9] | 6.4
11 | [NMeA]DIWFDYWDWD (lactam N-11) [PP17] | 0.3
12 | [NMeA]DIWFDYWDYD (lactam N-11) [PP18] | 0.2
13 | [NMeA]KFAQFRWIYPD (lactam N-12) [PP11] | > 62.1

Now from value to binder:

Row | IC50, phosphorylation by IKKβ [µM] | Binder
14 | 43.2 | [NMeA]RFRQWKWVYPD (lactam N-12) [PP13]
15 | 31 | [NMeA]NSWYINIWGHD (lactam N-12) [PP15]
16 | 7.8 | [dNMeA]SKYWNSWYNIWD (lactam N-13) [PP8]

Target: T2, Reg1_301-599 (human Regnase-1 amino …)
Assay: cell-based or functional assay

Row | Binder | IC50, phosphorylation by IKKβ [µM]
17 | [NMeA]NYQSWYYRSIWD (lactam N-13) [PP10] | 1.8
18 | [dNMeA]TYGHSSWYKIWD (lactam N-13) [PP9] | 6.2
19 | [NMeA]DIWFDYWDWD (lactam N-11) [PP17] | 0.7
20 | [NMeA]DIWFDYWDYD (lactam N-11) [PP18] | 0.5
21 | [NMeA]KFAQFRWIYPD (lactam N-12) [PP11] | > 62.1

The remaining lines, values ahead:

Row | IC50, phosphorylation by IKKβ [µM] | Binder
22 | 23.2 | [NMeA]RFRQWKWVYPD (lactam N-12) [PP13]
23 | 22 | [NMeA]NSWYINIWGHD (lactam N-12) [PP15]
24 | 5.7 | [dNMeA]SKYWNSWYNIWD (lactam N-13) [PP8]

Target: T1, full-length human Regnase-1 with a FLAG …
Assay: cell-based or functional assay

Row | Binder | IC50, phosphorylation by IKKβ [µM]
25 | [NMeA]NYQSWYYRSIWD (lactam N-13) [PP10] | 0.5
26 | [dNMeA]TYGHSSWYKIWD (lactam N-13) [PP9] | 2.7
27 | [NMeA]DIWFDYWDWD (lactam N-11) [PP17] | 0.5
28 | [NMeA]DIWFDYWDYD (lactam N-11) [PP18] | 0.4
29 | [NMeA]KFAQFRWIYPD (lactam N-12) [PP11] | 22.3

More lines, now with the values ahead:

Row | IC50, phosphorylation by IKKβ [µM] | Binder
30 | 3.6 | [NMeA]RFRQWKWVYPD (lactam N-12) [PP13]
31 | 5.6 | [NMeA]NSWYINIWGHD (lactam N-12) [PP15]
32 | 1.4 | [dNMeA]SKYWNSWYNIWD (lactam N-13) [PP8]

Target: T1, full-length human Regnase-1 with a FLAG …
Assay: AlphaScreen, blocks IKKβ binding to FL_Reg1

Row | Binder | IC50 [µM]
33 | [NMeA]NYQSWYYRSIWD (lactam N-13) [PP10] | 11.4
34 | [dNMeA]TYGHSSWYKIWD (lactam N-13) [PP9] | 10.6
35 | [NMeA]DIWFDYWDWD (lactam N-11) [PP17] | < 0.06
36 | [NMeA]DIWFDYWDYD (lactam N-11) [PP18] | < 0.06
37 | [NMeA]KFAQFRWIYPD (lactam N-12) [PP11] | > 62.1

Next, values leading:

Row | IC50 [µM] | Binder
38 | 16.9 | [NMeA]RFRQWKWVYPD (lactam N-12) [PP13]
39 | 33.7 | [NMeA]NSWYINIWGHD (lactam N-12) [PP15]
40 | 7.4 | [dNMeA]SKYWNSWYNIWD (lactam N-13) [PP8]

Target: T1, full-length human Regnase-1 with a FLAG …
Assay: AlphaScreen, blocks TBK1 binding to FL_Reg1

Row | Binder | IC50 [µM]
41 | [NMeA]NYQSWYYRSIWD (lactam N-13) [PP10] | 9.8
42 | [dNMeA]TYGHSSWYKIWD (lactam N-13) [PP9] | 8.3
43 | [NMeA]DIWFDYWDWD (lactam N-11) [PP17] | < 0.06
44 | [NMeA]DIWFDYWDYD (lactam N-11) [PP18] | < 0.06
45 | [NMeA]KFAQFRWIYPD (lactam N-12) [PP11] | 60.9

Results, then the binder that gave them:

Row | IC50 [µM] | Binder
46 | 13.8 | [NMeA]RFRQWKWVYPD (lactam N-12) [PP13]
47 | 13.7 | [NMeA]NSWYINIWGHD (lactam N-12) [PP15]
48 | 6.5 | [dNMeA]SKYWNSWYNIWD (lactam N-13) [PP8]

Target: T3, ΔCTD_Reg1 (human Regnase-1 amino acids …)
Assay: cell-based or functional assay
Remark: another data set of the same source

Row | Binder | IC50, phosphorylation by TBK1 [µM]
49 | [NMeA]NYQSWYYRSIWD (lactam N-13) [PP10] | 0.2
50 | [dNMeA]TYGHSSWYKIWD (lactam N-13) [PP9] | 6.6
51 | [NMeA]DIWFDYWDWD (lactam N-11) [PP17] | 0.3
52 | [NMeA]DIWFDYWDYD (lactam N-11) [PP18] | 1.8
53 | [NMeA]KFAQFRWIYPD (lactam N-12) [PP11] | 55.6

Continued, values first:

Row | IC50, phosphorylation by TBK1 [µM] | Binder
54 | 17.7 | [NMeA]RFRQWKWVYPD (lactam N-12) [PP13]
55 | 9.5 | [NMeA]NSWYINIWGHD (lactam N-12) [PP15]
56 | 5.5 | [dNMeA]SKYWNSWYNIWD (lactam N-13) [PP8]

Target: T2, Reg1_301-599 (human Regnase-1 amino …)
Assay: cell-based or functional assay
Remark: another data set of the same source

Row | Binder | IC50, phosphorylation by TBK1 [µM]
57 | [NMeA]NYQSWYYRSIWD (lactam N-13) [PP10] | 0.4
58 | [dNMeA]TYGHSSWYKIWD (lactam N-13) [PP9] | 7.9
59 | [NMeA]DIWFDYWDWD (lactam N-11) [PP17] | < 0.06
60 | [NMeA]DIWFDYWDYD (lactam N-11) [PP18] | 0.9
61 | [NMeA]KFAQFRWIYPD (lactam N-12) [PP11] | > 62.1

Continued, values first:

Row | IC50, phosphorylation by TBK1 [µM] | Binder
62 | 18 | [NMeA]RFRQWKWVYPD (lactam N-12) [PP13]
63 | 17.4 | [NMeA]NSWYINIWGHD (lactam N-12) [PP15]
64 | 6 | [dNMeA]SKYWNSWYNIWD (lactam N-13) [PP8]

Target: T1, full-length human Regnase-1 with a FLAG …
Assay: cell-based or functional assay
Remark: another data set of the same source

Row | Binder | IC50, phosphorylation by TBK1 [µM]
65 | [NMeA]NYQSWYYRSIWD (lactam N-13) [PP10] | 0.2
66 | [dNMeA]TYGHSSWYKIWD (lactam N-13) [PP9] | 4.2
67 | [NMeA]DIWFDYWDWD (lactam N-11) [PP17] | < 0.06
68 | [NMeA]DIWFDYWDYD (lactam N-11) [PP18] | 0.6
69 | [NMeA]KFAQFRWIYPD (lactam N-12) [PP11] | 29.1

The remaining lines, values ahead:

Row | IC50, phosphorylation by TBK1 [µM] | Binder
70 | 8.4 | [NMeA]RFRQWKWVYPD (lactam N-12) [PP13]
71 | 8.5 | [NMeA]NSWYINIWGHD (lactam N-12) [PP15]
72 | 2.9 | [dNMeA]SKYWNSWYNIWD (lactam N-13) [PP8]
